Reference: the supplement of paper PMC10126150
± gives the standard deviation of the averaged measurements.

What follows are sequences tested on ATP (assay: switch fluorescence ratio, 500 uM ATP over buffer (Cy3 cluster intensity, sum of 5 cycles each) (fold (ratio)); higher = stronger signal-on switching upon ATP binding; sequences stand for … in TCGTCGGCAGCGTCAGATGTGTATAAGAGACAGTTTTTTTTTTTTTTTTTTTTTTTTT…TC). Conditions: aptamer strand: ATP DNA aptamer (quencher-CACCTGGGGGAGTATTGCGGAGGAAGG + anchor), 100 nM annealed; ATP concentration: 500 uM.
Outline: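 For every switch-domain sequence, the fluorescence ratio is the mean of per-cluster values, each being summed target-cycle Cy3 intensity over summed buffer-cycle Cy3 intensity. Clusters outside 100-1000 RFU were excluded. On a modified Illumina MiSeq flow-cell, the Cy3-labelled switching-strand clusters were annealed to 100 nM quencher-labelled ATP aptamer, imaged in selection buffer and then after 15 min with 500 uM ATP at 22 °C. Five such cycles were run, with NaOH stripping and re-annealing between them.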
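Note: ATP exposure 15 min at 22 °C before imaging.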

Sequence | switch fluorescence ratio
AAAGTTTTTT | 1.19 ± 0.39
ATTTTTAATC | 1.06 ± 0.14
GGGACCGTAT | 1 ± 0.023
TGCTATGGC | 1.09 ± 0.092
TTTTGTAAGA | 1.03 ± 0.013
CGTGGATTTA | 0.983 ± 0.011
CCTGGTGGAC | 1.11 ± 0.058
AAGTTTAGTG | 0.976 ± 0.019
AAGTCCTGGA | 1.07 ± 0.13
TGGGAGGCAA | 1.16 ± 0.021
ATTGATGGCG | 0.982 ± 0.06
GTTATTTAGT | 0.967 ± 0.05
ATATGTGCCA | 0.98 ± 0.02
CGGTTCGGGT | 0.993 ± 0.013
TCTTGGGGG | 1.05 ± 0.012
AATTAGGGTA | 1.03 ± 0.012
AACAGGGGGG | 1.02 ± 0.081
TTTGCCGTTC | 1.01 ± 0.042
TAGGGTTAAT | 1.03 ± 0.038
TTGGGGTGTC | 1.01 ± 0.021
TGCTAATAGG | 1.01 ± 0.02
GAACTATTTC | 1.036 ± 0.0019
TTTATGTGTT | 0.984 ± 0.021

Sequence | switch fluorescence ratio
GCGGTAACCA | 0.992 ± 0.033
GTAATTGGAG | 0.992 ± 0.016
GTAAGGAAAG | 1.04 ± 0.062
GTGGGGTTTG | 1.01 ± 0.041
CATGAGTATT | 0.954 ± 0.033
ATTGCCCACC | 1.026 ± 0.0086
TTTGATTCGG | 0.983 ± 0.017
CAGCAGGCGG | 1.01 ± 0.024
ATTATCCCGG | 0.99 ± 0.041
AAAGAAGGTG | 1.06 ± 0.12
TTAGGGCCGA | 1 ± 0.031
CGCGGAGGGT | 0.967 ± 0.016
TCTTCTAA | 0.9972 ± 0.0047
CGGCTTACCC | 1.14 ± 0.2
AGCTTTATGT | 1.02 ± 0.04
GGTTTTTGAG | 0.9564 ± 0.0045
GGGAAAGTTT | 0.996 ± 0.023
GTTCCTTTTT | 1.02 ± 0.064
CTTCAGGAAG | 0.9946 ± 0.0021
CAATTCATGG | 0.992 ± 0.073
GAGCGGGGGA | 1.03 ± 0.017
TTAAGGTCCG | 0.987 ± 0.047
TTTGCCAAAA | 1.14 ± 0.23

Sequence | switch fluorescence ratio
CGAACGGATG | 1.0156 ± 0.00041
TGCTGGGGTC | 0.977 ± 0.016
TTCCGGATTA | 1.07 ± 0.065
TGGTTTGAGG | 0.989 ± 0.035
CTTTAGGTGG | 1.03 ± 0.037
AAGATATGAT | 0.989 ± 0.032
ATGCGGTCCT | 1.02 ± 0.016
TGATGCTTT | 1.01 ± 0.077
TGGGGGTCTG | 1.01 ± 0.045
TTTAAATATG | 0.9942 ± 0.0073
CTTGGTGGGG | 0.969 ± 0.031
TAGACATGTT | 1 ± 0.13
CTTGGGACTT | 1 ± 0.05
ATATATATCG | 1.01 ± 0.0093
GTCATTTAAG | 0.991 ± 0.019
GCTACTTAGT | 1.02 ± 0.017
AAAAGGGGTG | 1.09 ± 0.025
GTTGTACTGG | 0.944 ± 0.03
TCATGACTTT | 1.012 ± 0.0038
CAGGGTGCTG | 0.973 ± 0.033
GGGGTGGTTT | 0.951 ± 0.037
AATGGACGTG | 1 ± 0.028
TTCGGGGAAT | 0.982 ± 0.034

Sequence | switch fluorescence ratio
GGGGTGATTG | 0.979 ± 0.0077
AAGTTGAGTA | 0.986 ± 0.025
ACGGGGCTAA | 1.12 ± 0.15
GAGTCGGCGG | 0.9893 ± 0.0023
TGGTGCGGGC | 1.05 ± 0.12
TCGGGATTTT | 0.997 ± 0.041
GTGGATTCAC | 0.98 ± 0.0096
GTCCAAGGGG | 1.04 ± 0.032
GCATTCTCGT | 1.029 ± 0.0021
CTTATAATAG | 1.036 ± 0.006
GCGTTAACGC | 0.9731 ± 0.0096
CCTCATTCGG | 1.06 ± 0.021
GGGGGATTAT | 0.992 ± 0.044
ATATCTATTT | 0.997 ± 0.019
AGTTAGCAAT | 2.45 ± 0.11
CGGGGTTTT | 0.999 ± 0.046
GTTAGTTAGG | 0.976 ± 0.025
TTTCGTACTC | 1.09 ± 0.13
GGTTTTTCGG | 1.04 ± 0.014
ATGGGGCCAA | 1.03 ± 0.031
GCGCTTTTCT | 0.9784 ± 0.0063
AAAAATCTGG | 1.45 ± 0.67
CATCTGGCTT | 1.0536 ± 0.00031

Sequence | switch fluorescence ratio
CGGTCGATCC | 1 ± 0.023
TGAGGGAGGT | 0.985 ± 0.03
TCGACAAAGG | 1.07 ± 0.021
TGTTTTAAAA | 0.99 ± 0.027
GGGCTGCCGA | 1.03 ± 0.021
GTAGTGGCGA | 1.04 ± 0.026
AAAAGCAGCG | 1.03 ± 0.05
GATGGAAGTT | 1 ± 0.018
CGAGCTCTCG | 1.002 ± 0.0075
TCGACATGGT | 0.995 ± 0.041
TGCGTTATTA | 0.999 ± 0.017
ACCTAGCTTC | 1.12 ± 0.05
CAGGACGGGG | 1.01 ± 0.038
ATGAATAAAT | 1.012 ± 0.0058
ATTTTTGGCC | 1.02 ± 0.035
CAGGAATACT | 3.61 ± 3
CATCGGATAT | 1.04 ± 0.052
CAATTATGTA | 0.963 ± 0.016
TTGGCTCGCA | 1.11 ± 0.15
CTTGTTAGCG | 0.9807 ± 0.0076
TTTTGTATTT | 0.988 ± 0.035
AGAGTTATGT | 1.019 ± 0.0068
AACTATAAAA | 1 ± 0.014

Sequence | switch fluorescence ratio
GGTTACGCTA | 1.11 ± 0.074
ATGGTTAGGG | 1.03 ± 0.033
AACTTGGGGA | 0.9657 ± 0.0061
AAGAGATATA | 1.008 ± 0.0037
AACAAGGGGG | 1.01 ± 0.013
AGCATACGTT | 1.16 ± 0.051
GTTAGTGGCT | 0.9906 ± 0.0034
TAAAAATCGT | 0.997 ± 0.021
TGTGTATTGT | 0.985 ± 0.031
ATGTAATGGT | 1.01 ± 0.03
ACGTAGTAAC | 1.03 ± 0.022
TAAGTGGTTG | 0.989 ± 0.052
GCGGGGCCTT | 0.9811 ± 0.004
GACCGGAGTC | 1.03 ± 0.049
ACGTGGTGTT | 1.003 ± 0.0035
CGGGACGGCA | 1.01 ± 0.017
AAGTTTTGGA | 1.02 ± 0.025
TCCTATTAGG | 0.9888 ± 0.0054
TCTTGGGGGA | 0.996 ± 0.031
TTAGTTGCTT | 1.01 ± 0.03
TGGGTTGAGT | 0.987 ± 0.017
GGGACCAGGG | 0.989 ± 0.027
AAGCAGCTGT | 1.01 ± 0.034

Sequence | switch fluorescence ratio
GACTACAGTG | 1.1 ± 0.019
TGAGAAAGAG | 2.15 ± 2
TATTTTACTA | 1.01 ± 0.032
GCGCTAATTT | 1.28 ± 0.59
GGGGGGAATC | 1.01 ± 0.052
GACGGGGTTA | 1.02 ± 0.018
TCCAGGCTTT | 1.05 ± 0.071
AAAGAAGAGA | 1.021 ± 0.0069
CTTCTGAGGG | 1.02 ± 0.012
CGATTAGTTG | 0.998 ± 0.032
GCGGGGCGGG | 1.02 ± 0.017
AGTGGGGCCA | 1.03 ± 0.044
GGTTGCAGCT | 0.975 ± 0.018
AATACGGGGA | 1.02 ± 0.024
AATGTTTTGG | 0.9952 ± 0.0081
CGCCGAGTTT | 1.05 ± 0.071
AGGATGGTTG | 1 ± 0.021
TAGTATAGGA | 0.973 ± 0.056
AGCCCCGGCT | 0.967 ± 0.045
